From the supplement of paper PMC9170038

Test system: K4 kissing-loop RNA reporter
Test: apparent KD of K4 kissing-loop reporter; higher = weaker reporter binding
Settings: Eterna round: R107
Protocol: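 RNA-MaP round R107: designed RNA switches with theophylline, tryptophan, arginine or FMN aptamers are transcribed on-chip within common flanks. They are titrated with a labelled K4 kissing-loop RNA reporter in RNA-MaP buffer (100 mM Tris pH 7.5, 80 mM KCl, 4 mM MgCl2), without ligand or with the indicated ligand. Median apparent KD per design.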

[1] = input ligand: theophylline 20 uM
[2] = input ligand: tryptophan 2.4 mM
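Also: bound reporter read as fluorescence of individual clusters on recovered sequencing chips by microscopy, with normalized cluster intensities fitted with a binding model.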

| Sequence | apparent KD of K4 kissing-loop reporter (input ligand: FMN 200 uM) [nM] | apparent KD of K4 kissing-loop reporter (input ligand: arginine 13.2 mM) [nM] | apparent KD of K4 kissing-loop reporter (input ligand: none) [nM] | apparent KD of K4 kissing-loop reporter [1] [nM] | apparent KD of K4 kissing-loop reporter [2] [nM] |
| --- | --- | --- | --- | --- | --- |
| AAUACUAUCAGAAGGAGCGUGGAAUAUUCAUCUGUAUCUAAUACGAGUGAUGUUCGUAAUUCACAGGUAGGUCGCUGAUUAAUAC [whbob_Ex_Arginine_B_2th158] | 265 | 245 | 288 | 304 | 245 |
| AAUAGGGAGUGAUGUUCCCUCACUUAUGAUACCAGUGCCAUCGGACACCCUUGGCAGCAUACGGGCAGUGAUGUUGUUCUUGGAA [Exclusion Theophylline A GF 25] | 129 | 148 | 156 | 155 | 119 |
| AAUAUAAAGUCGGCCGCCACUGGAUUUAUAUUUGUUAAAUCUGGAUCAAAGUGAUGUUUUGAGUCCAGGACCGGGACAAUUGUUA [JR_ExcTryptoB_Sub001] | 123 | 117 | 120 | 122 | 203 |
| AAUAUAGUGAUGUUAUAUAAGAAGGAGUUACGAGGACCGGUACGGCCGCCACUCGAAACGAGUGAGGGCUUGGGAGAUUGGGCCC [SSTryptA.I] | 404 | 346 | 444 | 377 | 264 |
| AAUCCUAACGGAGUGAUGUUCCGUAGCGAUACCAGCCAUUGCGAUGGCCCUUGGCAGCGCUAUAAGCAUUGCUAGUAAGGGCCAA [Theo A Ex t7] | 167 | 148 | 168 | 163 | 159 |
| AAUCGAGUGAUGUUCGAUGUAGUGCAUUCAGAGGAUAUAGGAUGGGCUAGAAGGCUGAAAAGUGCUUCGAGUGAUGUUCGAAGAU [Exclusion FMN A GF 4] | 47.1 | 49 | 76.7 | 49.7 | 56 |
| AAUGUGCAGGGAAGGAGCGUAGUCCAGUGCUGUUGGAGUUAAAUACCAGUGAUGUUGGUUAUACAGGUAGGUCGCCCUAAAGCGC [whbob_Ex_Arginine_B_2th160] | 141 | 176 | 158 | 211 | 129 |
| AAUUACCUAGUGAUGUUGGGAAUAAUAUAACGAGGACCGGUACGGCCGCCACUCGAGGUCCUAAUUAAGAACGCGAAAGCGAAGA [Tryptophan A Exclusion; Euphoria Solution] | 94.4 | 60.5 | 93.1 | 66.8 | 189 |
| AAUUUAUAUUUAUUCUUUAAUUGUUCAGAAGGAGCGUGAAUUAUCACAGGUAGGUCGCUGAGCUAGUGAUGUUAGCUAUAUACUA [JR_ExcArginiA_Sub008] | 65.5 | 105 | 62.8 | 82.8 | 58.4 |
| AAUUUAUUAACUGAUACCAGACUAAUUUUAUUUAUUAAGUCAAGUGAUGUUUGACUUUAUGUCCCUUGGCAGCAGAAUUAAUUAA [JR_SSTheophyB_Sub019] | 126 | 143 | 124 | 112 | 128 |
| AAUUUAUUAACUGAUACCAGACUUUAGCGUGUUUAUAAGUCAAGUGAUGUUUGACUAUUAGUCCCUUGGCAGCAGUAUUUAUUAA [JR_SSTheophyB_Sub022] | 149 | 131 | 134 | 114 | 120 |
| AAUUUGUAUUUAUUCUUUAAAUGUUCAGAAGGAGCGUGAAUUAUCACAGGUAGGUCGCUGAGCUAGUGAUGUUAGCUAUACACUA [#01 K4 Arginine A Exclusion] | 98.5 | 201 | 127 | 181 | 91 |
| ACAGAUUGAUUGAUUCACUUUGUAGCUGCGAAGGAUAUUAAGACGCUAAGAAGGUCGCUUAAGGGUAGUGAUGUUACCUUUUGAG [theeternabot_sameState_KL_FMN_A_27] | 57.3 | 55 | 57.8 | 56.6 | 51.4 |
| ACCAUCAAAGAUGGCCAGGACUCAACUGAUACCAGAGUGGAAACACUCCCUUGGCAGCAGGUGAGUGAUGUUCACGAGUCCUGGA [Omel KL Theo A SS B v8] | 942 | 786 | 982 | 522 | 787 |
| ACCUACCAUUAGUGAUGUUAAUGGACGGAAGGAGCGCGGAUAUCUGCAGGUAGGUCGCCGAAGGCUAGACAUUGUCUAGCCAUUA [AK1 SS Arginine A] | 149 | 113 | 131 | 107 | 120 |
| ACGCUAGCUACCGAAAGGUAGCUAGCGAGUGAGGAUAUGUGGAAACACAGAAGGCACAGCACAGUGAUGUUGUGCGGCGAAAGCC | 587 | 249 | 932 | 522 | 729 |
| ACGUAGUACGUAGGAUAUCAGAGAUCAGUUAGUGAGAUCGAGUGAUGUUCGAUCAUGUGUUCAUUUUGAGAAGGAUGUAGUAGGA [KL-SSFMN-B6] | 302 | 302 | 366 | 358 | 228 |
| ACUACGAAGACGGCCGCCACUGAUAUUCGUAGAUCCAUCAUUGCAUGAGUGAUGUUCAUGUAUAUCAGGACCGGGUCAAGAUGGU [KL-XTryp-B18 #analogue] | 295 | 245 | 305 | 282 | 213 |
| ACUAGAAAACCAGUGAUGUUGGCCUGGGAUACCAGCUUCUAUUAUAGCCCUUGGCAGCCCUUUAGUACAAGUGACCUUGCGACCG [theeternabot_sameState_KL_Theo_A_9] | 299 | 217 | 452 | 217 | 277 |
| AGAACUGUCUGAGAUACCAGCUAAGGAGUGAUGUUCCGGCUCGACGAAACGUCGAGCCAUAGCCCUUGGCAGCUCAGACAGUUCA [#27 K4 Theophylline B Same State] | 431 | 183 | 378 | 873 | 244 |
| AGAACUGUCUUGGAUACCAGUGAUGUUGGUAUCGAUGUGUGAGUGCAAAGCGUCCCACAUCGCCCUUGGCAGCUAAGACUGUUCA [Omei KL Theo B Exc A v4] | 287 | 238 | 302 | 349 | 257 |
